The target in experiment [1] is T1, recombinant human IL-1α (human) (UniProt P01583).
T1 sequence: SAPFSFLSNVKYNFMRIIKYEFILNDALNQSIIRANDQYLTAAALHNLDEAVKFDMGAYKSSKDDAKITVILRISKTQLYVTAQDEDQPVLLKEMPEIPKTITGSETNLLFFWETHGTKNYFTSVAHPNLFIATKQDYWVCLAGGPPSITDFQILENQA
Put plainly: cell-based or functional assay.

In experiment [2] the target is T1, recombinant human IL-1α (human). In words: SPR (Biacore), antibody captured, IL-1α in solution. Background: Surface plasmon resonance follows binding to a sensor surface in real time, without labels.

Usually Kd stands for the constant that tells how readily two partners part at equilibrium.

Where a chain is given by its changes, count along the chain named.

B1: anti-human IL-1α monoclonal antibody 3D12 (antibody, from a related filing, V domains shown)
VH: QIQLVQSGPELKKPGETVKISCKASGYTFRNYGMNWVKQAPGKDLKRMAWINTYTGESTYADDFKGRFAFSLETSASTAYLQINNLKNEDTATYFCARGIYYYGSSYAMDYWGQGTSVTVSS
VL: IQMTQTTSSLSASLGDRVTISCRASQDISNCLNWYQQKPDGTVKLLIYYTSRLHSGVPSRFSGSGSGTDYSLTISNLEQEDIATYFCQQGKTLPYAFGGGTKLEINR
As to B1, the Neutralization Potency (IC50, pM), MRC-5 bioassay (IL-8 production) in experiment [1] is 1880 pM. For the same molecule, the Kd in experiment [2] turned out to be 1.34 nM.

B2: humanized anti-human IL-1α antibody H3D12.8 (antibody, from a related filing, human IgG1, V domains shown)
VH: EIQLVQSGSELKKPGASVKVSCKASGYTFTNYGMNWVRQAPGQDLERMAWINTYTGESTYADDFKGRFVFSLDTSVSTAYLQISSLKAEDTAVYFCARGIYYYGSSYAMDYWGQGTTVTVSS
VL: DIQMTQSPSSLSASVGDRVTITCRASQDISNCLNWYQQKPGKTPKLLIYYTSRLHSGVPSRFSGSGSGTDYTFTISSLQPEDIATYFCQQGKTLPYAFGQGTKLEIK
Take B2: the Neutralization Potency (IC50, pM), MRC-5 bioassay (IL-8 production) in experiment [1] worked out at 1950 pM. Besides, the Kd in experiment [2] turned out to be 1.35 nM.

B3: humanized anti-human IL-1α antibody H3D12.r16 (antibody, from a related filing, human IgG1, V domains shown)
VH: EVQLVQSGAEVKKPGASVKVSCKASGYTFKYYGMNWVRQAPGQGLERMGWINTYTGQSTYADDFKGRVTFTLDTSTSTAYMELSSLRSEDTAVYYCARDIYYYGSDFAMDYWGQGTTVTVSS
VL: B2 VL with C32M, T43A, H55K, S56P, L94A, A97T
B3: the Neutralization Potency (IC50, pM), MRC-5 bioassay (IL-8 production) in experiment [1] is 0.6 pM. The Kd in experiment [2] was determined as 0.031 nM.

B4: humanized anti-human IL-1α antibody H3D12.r37 (antibody, from a related filing, human IgG1, V domains shown)
VH: B3 VH with V2I, Q57E, T59R, Y103F, F107Y
VL: B2 VL with C32R, T43A, T51A, H55K, S56P, K92N, L94P, A97T
As for B4, the Neutralization Potency (IC50, pM), MRC-5 bioassay (IL-8 production) in experiment [1] was determined as 1.4 pM. The Kd in experiment [2] turned out to be 0.028 nM.

B5: humanized anti-human IL-1α antibody H3D12.r10 (antibody, from a related filing, human IgG1, V domains shown)
VH: B3 VH with V2I, K30A, Y31H, R47W, V68F, D99G, Y103F, D106N, F107Y
VL: B2 VL with C32M, H55R, T93K, L94P, A97T
Regarding B5, the Neutralization Potency (IC50, pM), MRC-5 bioassay (IL-8 production) in experiment [1] stood at 0.6 pM. Further, the dissociation constant Kd in experiment [2] is 0.032 nM.

B6: humanized anti-human IL-1α antibody H3D12.16 (antibody, from a related filing, human IgG1, V domains shown)
VH: B2 VH with S9A, L11V, V69T, S71T, V76T, L81M, Q82E, I83L, K87R, A88S
VL: B2 VL
Take B6: the Neutralization Potency (IC50, pM), MRC-5 bioassay (IL-8 production) in experiment [1] turned out to be 1360 pM. Moreover, the Kd in experiment [2] was 2.09 nM.

The values above are taken from patent US20100221179A1.
